Target: human prothrombin (Enzyme Research Laboratories), P00734

B1: Fibrinogen-like protein 2 (FGL-2)/fibroleukin, human (protein)
chain: NNETEEIKDERAKDVCPVRLESRGKCEEAGECPYQVSLPPLTIQLPKQFSRIEEVFKEVQNLKEIVNSLKKSCQDCKLQADDNGDPGRNGLLLPSTGAPGEVGDNRVRELESEVNKLSSELKNAKEEINVLHGRLEKLNLVNMNNIENYVDSKVANLTFVVNSLDGKCSKCPSQEQIQSRPVQHLIYKDCSDYYAIGKRSSETYRVTPDPKNSSFEVYCDMETMGGGWTVLQARLDGSTNFTRTWQDYKAGFGNLRREFWLGNDKIHLLTKSKEMILRIDLEDFNGVELYALYDQFYVANEFLKYRLHVGNYNGTAGDALRFNKHYNHDLKFFTTPDKDNDRYPSGNCGLYYSSGWWFDACLSANLNGKYYHQKYRGVRNGIFWGTWPGVSEAHPGGYKSSFKEAKMMIRPKHFKP
FGL-2 prothrombinase activity (thrombin generation assay, chromogenic substrate, 405 nm): FGL-2 prothrombinase activity in HUVEC was only observed following maximal stimulation with TNFα

Reference: patent US20130115645
